# Test results: patent US20190022222A1, “NEUTRON CAPTURE THERAPY SYSTEM FOR ELIMINATING AMYLOID Beta-PROTEIN DEPOSITION PLAQUE” (NEUBORON MEDTECH LTD., priority 2016, published 2019)
# Legend:
# amyloid β-protein = amyloid β-protein (Homo sapiens, UniProt P05067); test: equilibrium dissociation constant KD with amyloid β-protein solution; type: binding; details: amyloid β-protein solution 10 μM, compound 0.1 to 10 μM, room temperature 20 min
# Experimental: In the examples of the present disclosure, the affinity of the ^10B-containing compound and the amyloid β-protein deposition plaque is evaluated by using the equilibrium dissociation constant KD value. KD can indicate the degree of dissociation of the two substances in the equilibrium state.
# The amyloid β-protein solution was prepared at a concentration of 10 μM and mixed with compound I or compound II at different concentrations (concentrations ranging from 0.1 to 10 μM). […] In addition, a known compound capable of specifically binding to amyloid β-protein was used as a control and mixed with a amyloid β-protein solution at a concentration of 10 μM and allowed to stand at room temperature for 20 min. The equilibrium dissociation constant KD was also measured and calculated.
# Aβ = details: phase III clinical trial, latest results; cited from earlier work
# Aβ, sequence (P05067 672-711 limits assumed): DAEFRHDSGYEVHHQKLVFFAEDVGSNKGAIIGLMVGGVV
# amyloid β-protein, sequence (P05067 672-713 limits assumed): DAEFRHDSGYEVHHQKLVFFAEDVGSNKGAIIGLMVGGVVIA
molecule,measurement,setting,value
Cc1ccc(C(=O)/C=C/c2ccc(N)cc2)o1 [control],Kd,amyloid β-protein,1590 nM
"Gantenerumab: monoclonal antibody that binds to the N-terminal epitope of Aβ (antibody, chains of the INN, looked up, V domains shown) VH: QVELVESGGGLVQPGGSLRLSCAASGFTFSSYAMSWVRQAPGKGLEWVSAINASGTRTYYADSVKGRFTISRDNSKNTLYLQMNSLRAEDTAVYYCARGKGNTHKPYGYVRYFDVWGQGTLVTVSS VL: DIVLTQSPATLSLSPGERATLSCRASQSVSSSYLAWYQQKPGQAPRLLIYGASSRATGVPARFSGSGSGTDFTLTISSLEPEDFATYYCLQIYNMPITFGQGTKVEIK",Aβ level in cerebrospinal fluid,Aβ,does not significantly reduce
same,tau protein level in cerebrospinal fluid,Aβ,significantly reduces
